According to US20240239878A1 (SHANGHAI QILU PHARMACEUTICAL RESEARCH AND DEVELOPMENT CENTRE, published 2024):
Like-named read-outs stand apart in the source and are kept apart here.

T1: human DLL3 on SHP-77 cells (human, UniProt Q9NYJ7 27-618)
T1 construct: also called DLL3-expressing cells (SHP-77)
T1 sequence: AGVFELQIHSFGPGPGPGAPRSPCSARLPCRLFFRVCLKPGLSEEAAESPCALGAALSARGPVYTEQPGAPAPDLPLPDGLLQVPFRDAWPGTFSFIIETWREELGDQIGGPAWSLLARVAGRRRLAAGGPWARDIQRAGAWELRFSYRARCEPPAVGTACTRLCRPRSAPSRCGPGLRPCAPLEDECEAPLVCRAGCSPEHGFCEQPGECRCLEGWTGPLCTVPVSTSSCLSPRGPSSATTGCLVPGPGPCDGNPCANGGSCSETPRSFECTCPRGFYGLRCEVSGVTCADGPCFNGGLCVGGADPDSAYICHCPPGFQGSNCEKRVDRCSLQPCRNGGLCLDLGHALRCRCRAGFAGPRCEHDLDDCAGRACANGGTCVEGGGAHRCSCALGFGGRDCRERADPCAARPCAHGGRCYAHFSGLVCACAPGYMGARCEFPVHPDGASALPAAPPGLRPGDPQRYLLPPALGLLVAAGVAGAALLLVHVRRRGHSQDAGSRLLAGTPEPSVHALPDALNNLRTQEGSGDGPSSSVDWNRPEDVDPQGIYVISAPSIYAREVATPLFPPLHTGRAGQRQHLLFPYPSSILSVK

T2: human DLL3 antigen protein (Kactus Biosystems, Cat. No. DLL-HM103) (human, UniProt Q9NYJ7 27-492)
T2 sequence: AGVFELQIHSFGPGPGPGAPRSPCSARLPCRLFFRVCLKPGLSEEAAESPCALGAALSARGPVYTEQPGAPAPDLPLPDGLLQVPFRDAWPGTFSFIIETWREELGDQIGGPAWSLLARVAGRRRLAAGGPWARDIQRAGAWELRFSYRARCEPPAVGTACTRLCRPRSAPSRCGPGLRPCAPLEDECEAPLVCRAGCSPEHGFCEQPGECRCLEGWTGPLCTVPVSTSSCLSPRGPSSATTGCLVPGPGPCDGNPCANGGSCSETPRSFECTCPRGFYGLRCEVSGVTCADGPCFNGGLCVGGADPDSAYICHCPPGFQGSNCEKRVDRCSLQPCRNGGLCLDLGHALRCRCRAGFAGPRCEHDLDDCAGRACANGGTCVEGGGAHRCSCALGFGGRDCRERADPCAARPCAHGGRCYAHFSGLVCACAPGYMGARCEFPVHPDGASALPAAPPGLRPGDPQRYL


Columns and labels:
[1] = target: T1, human DLL3 on SHP-77 cells; test: flow cytometry, SHP-77 cells
Outline: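 Trypsinised SHP-77 cells in 1% BSA/PBS were incubated with antibody (100 nM top, 10-fold steps, 7 concentrations) for 1 h at 4° C. Bound antibody was detected with goat anti-human IgG Fc-PE for 0.5 h at 4° C and read as PE mean fluorescence intensity. EC50 and Top MFI were derived from the curves.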

[2] = target: T2, human DLL3 antigen protein (Kactus …); test: affinity assay with human DLL3 antigen protein (kinetics; method not restated, Biacore as in Example 18 implied)
[3] = target: T1, human DLL3 on SHP-77 cells; test: flow cytometry, SHP-77 cells; remark: listed apart in the source
[4] = target: T2, human DLL3 antigen protein (Kactus …); test: affinity assay with human DLL3 antigen protein (kinetics; method not restated, Biacore as in Example 10 implied)

EC50 [1] [nM] | Top MFI [1] [MFI] | Kd [2] [nM] | koff [2] [s⁻¹] | kon [2] [M⁻¹ s⁻¹] | EC50 [3] [nM] | Top MFI [3] [MFI] | Kd [4] [nM] | koff [4] [s⁻¹] | kon [4] [M⁻¹ s⁻¹] | Binder
1.12 | 1570 | 0.739 | 0.000134 | 181000 |  |  |  |  |  | H2-39E2D11 mouse hybridoma-derived humanized anti-DLL3 antibody (antibody, V domains shown) VH: QVQLVQSGAEVKKPGASVKVSCKASGYTFISYWITWVRQAPGQGLEWMGDIYPGSGSTTNYNEKFKSRVTMTRDTSTSTVYMELSSLRSEDTAVYYCARETTVGGAYAMDYWGQGTLVTVSS VL: EIVLTQSPATLSLSPGERATLSCRASQSINNNLHWYQQKPGQAPRLLIKYVSQSISGIPARFSGSGSGTDFTLTISSLEPEDFAVYYCQQTNSWPLTFGGGTKLEIK
 |  |  |  |  | 0.068 | 1080 | 0.45 | 0.000614 | 1.36e+06 | hDLL3-3-1 camelid-derived humanized anti-DLL3 antibody (antibody, human IgG1, V domains shown) VH: EVQLVESGGGLVQPGGSLRLSCAASTYTISSGYMGWFRQAPGKEREGVAAIYIGGSTTLYADSVKGRFTISRDNSKNTLYLQMNSLRAEDTAVYYCAAQLRPNSAYHPLDGRKYNYWGQGTLVTVSS
